Assay results from the supplement of paper PMC10567573.

B1: IMPA1 (parent)
chain: FIGEESVAAGEKSILTDNPTWIID

Variants of: B1
Assay: protein stability index of a GFP-peptide fusion (GPS, HEK-293T) (PSI 1-6); higher = more stable
Details: c terminus: a fixed tail appended
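Also: lentivirally expressed fusions sorted by FACS into six bins by GFP to DsRed ratio, PSI derived from sequencing read proportions per bin multiplied by bin number.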

Variant	protein stability index
FIGEESVAAGEKSILTDNLTWIID [P19L]	1.97
FIGEESVAAGEKSILTDNYTWIID [P19Y]	2.18
FIGEESVAAGEKSILTDNTTWIID [P19T]	2.83
FIGEESVAAGEKSILTDNFTWIID [P19F]	2.35
FIGEESVAAGEKSILTDNMTWIID [P19M]	2.27
FIGEESVAAGEKSILTDNNTWIID [P19N]	2.89
FIGEESVAAGEKSILTDNPTWIMD [I23M]	2.52
FIGEESVAAGEKSILTDNPTWIDD [I23D]	3.04
FIGEESVAAGEKSILTDNPTWIND [I23N]	3.55
FIGEESVAAGEKSILTDNPTWIHD [I23H]	3.75
FIGEESVAAGEKSILTDNPTWIKD [I23K]	3.64
FIGEESVAAGEKSILTDNPTWILD [I23L]	3.6
FIGEESVAAGEKSILTDNPTWIAD [I23A]	1.84
FIGEESVAAGEKSILTDNPTWICD [I23C]	3.44
FIGEESVAAGEKSILTDNPTWIFD [I23F]	2.81
FIGEESVAAGEKSILTDNPTWIPD [I23P]	3.04
FIGEESVAAGEKSILTDNPTWIGD [I23G]	2.99
FIGEESVAAGEKSILTDNPTWIED [I23E]	3.85
FIGEESVAAGEKSILTDNPNWIID [T20N]	3.1
FIGEESVAAGEKSILTDNPWWIID [T20W]	2.03
FIGEESVAAGEKSILTDNPGWIID [T20G]	2.71
FIGEESVAAGEKSILTDNPPWIID [T20P]	2.25
FIGEESVAAGEKSILTDNPRWIID [T20R]	2.73
FIGEESVAAGEKSILTDNPIWIID [T20I]	1.73

Variant	protein stability index
FIGEESVAAGEKSILTDNPAWIID [T20A]	2.43
FIGEESVAAGEKSILTDNPLWIID [T20L]	2.05
FIGEESVAAGEKSILTDNPFWIID [T20F]	2.29
FIGEESVAAGEKSILTDNPDWIID [T20D]	3.32
FIGEESVAAGEKSILTDNPCWIID [T20C]	2.2
FIGEESVAAGEKSILTDNPMWIID [T20M]	1.82
FIGEESVAAGEKSILTDNPVWIID [T20V]	2.65
FIGEESVAAGEKSILTDNPKWIID [T20K]	3.4
FIGEESVAAGEKSILTDNPSWIID [T20S]	2.56
FIGEESVAAGEKSILTDNPQWIID [T20Q]	3.09
FIGEESVAAGEKSILTDNPYWIID [T20Y]	1.7
FIGEESVAAGEKSILTDNPEWIID [T20E]	3.67
FIGEESVAAGEKSILTDNPHWIID [T20H]	2.67
FIGEESVAAGEKSINTDNPTWIID [L15N]	2.78
FIGEESVAAGEKSIDTDNPTWIID [L15D]	2.83
FIGEESVAAGEKSICTDNPTWIID [L15C]	2.3
FIGEESVAAGEKSIITDNPTWIID [L15I]	1.98
FIGEESVAAGEKSIRTDNPTWIID [L15R]	2.17
FIGEESVAAGEKSIHTDNPTWIID [L15H]	2.22
FIGEESVAAGEKSIGTDNPTWIID [L15G]	2.77
FIGEESVAAGEKSIETDNPTWIID [L15E]	2.61
FIGEESVAAGEKSIMTDNPTWIID [L15M]	2.15
FIGEESVAAGEKSIFTDNPTWIID [L15F]	2.06
FIGEESVAAGEKSIATDNPTWIID [L15A]	2.33

Variant	protein stability index
FIGEESVAAGEKSISTDNPTWIID [L15S]	2.33
FIGEESVAAGEKSIPTDNPTWIID [L15P]	2.57
FIGEESVAAGEKSIKTDNPTWIID [L15K]	2.47
FIGEESVAAGEKSIVTDNPTWIID [L15V]	2.52
FIGEESVAAGEKSIYTDNPTWIID [L15Y]	2.05
FIGEESVAAGEKSIWTDNPTWIID [L15W]	2.48
FIGEESVAAGEKSIQTDNPTWIID [L15Q]	2.28
FIGEESVAAGEKSITTDNPTWIID [L15T]	2.33
FIGEESVAAGEKSILTDNPTEIID [W21E]	5.07
FIGEESVAAGEKSILTDNPTMIID [W21M]	4.69
FIGEESVAAGEKSILTDNPTAIID [W21A]	4.65
FIGEESVAAGEKSILTDNPTNIID [W21N]	4.57
FIGEESVAAGEKSILTDNPTFIID [W21F]	3.89
FIGEESVAAGEKSILTDNPTRIID [W21R]	4.48
FIGEESVAAGEKSILTDNPTQIID [W21Q]	4.65
FIGEESVAAGEKSILTDNPTYIID [W21Y]	3.96
FIGEESVAAGEKSILTDNPTDIID [W21D]	4.85
FIGEESVAAGEKSILTDNPTTIID [W21T]	4.87
FIGEESVAAGEKSILTDNPTHIID [W21H]	4.71
FIGEESVAAGEKSILTDNPTCIID [W21C]	4.23
FIGEESVAAGEKSILTDNPTSIID [W21S]	4.41
FIGEESVAAGEKSILTDNPTIIID [W21I]	3.92
FIGEESVAAGEKSILTDNPTKIID [W21K]	4.78
FIGEESVAAGEKSILTDNPTGIID [W21G]	4.71

Variant	protein stability index
FIGEESVAAGEKSILTDNPTPIID [W21P]	4.67
FIGEESVAAGEKSILTDNPTVIID [W21V]	4.95
FIGEESVAAGEKSILTDNPTLIID [W21L]	4.06
FIGEESVAAGEKSRLTDNPTWIID [I14R]	1.99
FIGEESVAAGEKSWLTDNPTWIID [I14W]	2.22
FIGEESVAAGEKSLLTDNPTWIID [I14L]	1.78
FIGEESVAAGEKSVLTDNPTWIID [I14V]	2.23
FIGEESVAAGEKSTLTDNPTWIID [I14T]	2.6
FIGEESVAAGEKSNLTDNPTWIID [I14N]	2.23
FIGEESVAAGEKSDLTDNPTWIID [I14D]	2.34
FIGEESVAAGEKSFLTDNPTWIID [I14F]	1.5
FIGEESVAAGEKSGLTDNPTWIID [I14G]	2.38
FIGEESVAAGEKSCLTDNPTWIID [I14C]	1.68
FIGEESVAAGEKSELTDNPTWIID [I14E]	2.31
FIGEESVAAGEKSHLTDNPTWIID [I14H]	2.44
FIGEESVAAGEKSYLTDNPTWIID [I14Y]	1.91
FIGEESVAAGEKSMLTDNPTWIID [I14M]	2.15
FIGEESVAAGEKSKLTDNPTWIID [I14K]	2.54
FIGEESVAAGEKSALTDNPTWIID [I14A]	2.47
FIGEESVAAGEKSSLTDNPTWIID [I14S]	2.32
FIGEESVAAGEKSQLTDNPTWIID [I14Q]	2.01
FIGEESVAAGEKSPLTDNPTWIID [I14P]	2.33
